{"source": "the supplement of paper PMC9112550", "about": "“Optimization of the antimicrobial peptide Bac7 by deep mutational scanning” (BMC Biology, 2022);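 further: peptides expressed intracellularly from a pBAD plasmid library in pooled LB shake-flask culture, induced with 0.3% L-arabinose, DNA abundance read by NGS, three biological replicates, DESeq2 with apeglm shrinkage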", "data": [{"tested_on": "Escherichia coli TOP10", "assay": "shrunken log2 fold change of peptide-encoding DNA abundance (4.5 h post-induction vs induction); higher = less antimicrobial activity (less host growth inhibition)", "details": "time post-induction: 4.5 h; library: site-saturation at positions 5, 18, 19, 20", "values": [{"sequence": "RRIRTRPPRLPRPRPRPIQLPRP", "shrunken log2 fold change": -0.122}, {"sequence": "RRIRARPPRLPRPRPRPTNCPRP", "shrunken log2 fold change": 0.269}, {"sequence": "RRIRQRPPRLPRPRPRPDVGPRP", "shrunken log2 fold change": -0.0428}, {"sequence": "RRIRCRPPRLPRPRPRPNSQPRP", "shrunken log2 fold change": -0.47}, {"sequence": "RRIRRRPPRLPRPRPRPKMWPRP", "shrunken log2 fold change": 0.216}, {"sequence": "RRIRCRPPRLPRPRPRPMPEPRP", "shrunken log2 fold change": 0.122}, {"sequence": "RRIRIRPPRLPRPRPRPFLMPRP", "shrunken log2 fold change": -0.314}, {"sequence": "RRIRWRPPRLPRPRPRPGYRPRP", "shrunken log2 fold change": 0.0673}, {"sequence": "RRIRCRPPRLPRPRPRPMEMPRP", "shrunken log2 fold change": -0.193}, {"sequence": "RRIRLRPPRLPRPRPRPRIHPRP", "shrunken log2 fold change": -0.081}, {"sequence": "RRIRLRPPRLPRPRPRPAKPPRP", "shrunken log2 fold change": 1.22}, {"sequence": "RRIRHRPPRLPRPRPRPGGGPRP", "shrunken log2 fold change": 0.684}, {"sequence": "RRIRLRPPRLPRPRPRPQHLPRP", "shrunken log2 fold change": -0.223}, {"sequence": "RRIRHRPPRLPRPRPRPRTLPRP", "shrunken log2 fold change": -0.137}, {"sequence": "RRIRARPPRLPRPRPRPGMKPRP", "shrunken log2 fold change": 0.186}, {"sequence": "RRIRTRPPRLPRPRPRPFWTPRP", "shrunken log2 fold change": -0.258}, {"sequence": "RRIRKRPPRLPRPRPRPVMGPRP", "shrunken log2 fold change": 0.155}, {"sequence": "RRIRVRPPRLPRPRPRPCKMPRP", "shrunken log2 fold change": -0.159}, {"sequence": "RRIRLRPPRLPRPRPRPHMNPRP", "shrunken log2 fold change": -0.686}, {"sequence": "RRIRARPPRLPRPRPRPEDRPRP", "shrunken log2 fold change": 0.381}, {"sequence": "RRIRSRPPRLPRPRPRPTDEPRP", "shrunken log2 fold change": -0.148}, {"sequence": "RRIRTRPPRLPRPRPRPWCEPRP", "shrunken log2 fold change": 0.0211}, {"sequence": "RRIRTRPPRLPRPRPRPQIAPRP", "shrunken log2 fold change": -0.0663}, {"sequence": "RRIRERPPRLPRPRPRPYYVPRP", "shrunken log2 fold change": -0.559}, {"sequence": "RRIRARPPRLPRPRPRPSQDPRP", "shrunken log2 fold change": 0.196}, {"sequence": "RRIRWRPPRLPRPRPRPQFSPRP", "shrunken log2 fold change": 0.053}, {"sequence": "RRIRQRPPRLPRPRPRPDSDPRP", "shrunken log2 fold change": -0.159}, {"sequence": "RRIRARPPRLPRPRPRPCNTPRP", "shrunken log2 fold change": -0.0534}, {"sequence": "RRIRQRPPRLPRPRPRPSEDPRP", "shrunken log2 fold change": -0.0593}, {"sequence": "RRIRARPPRLPRPRPRPMIDPRP", "shrunken log2 fold change": 0.535}, {"sequence": "RRIRRRPPRLPRPRPRPNYGPRP", "shrunken log2 fold change": 0.00704}, {"sequence": "RRIRRRPPRLPRPRPRPHIAPRP", "shrunken log2 fold change": -0.0643}, {"sequence": "RRIRERPPRLPRPRPRPVYTPRP", "shrunken log2 fold change": -0.146}, {"sequence": "RRIRERPPRLPRPRPRPIWEPRP", "shrunken log2 fold change": 0.0512}, {"sequence": "RRIRLRPPRLPRPRPRPLLFPRP", "shrunken log2 fold change": -0.242}, {"sequence": "RRIRMRPPRLPRPRPRPHVDPRP", "shrunken log2 fold change": 0.51}, {"sequence": "RRIRLRPPRLPRPRPRPLKAPRP", "shrunken log2 fold change": -0.153}, {"sequence": "RRIRHRPPRLPRPRPRPQCHPRP", "shrunken log2 fold change": -0.202}, {"sequence": "RRIRARPPRLPRPRPRPPGHPRP", "shrunken log2 fold change": 0.779}, {"sequence": "RRIRLRPPRLPRPRPRPPQMPRP", "shrunken log2 fold change": 0.304}, {"sequence": "RRIRERPPRLPRPRPRPATMPRP", "shrunken log2 fold change": -0.324}, {"sequence": "RRIRGRPPRLPRPRPRPCFVPRP", "shrunken log2 fold change": 0.319}, {"sequence": "RRIRARPPRLPRPRPRPVECPRP", "shrunken log2 fold change": 0.0527}, {"sequence": "RRIRFRPPRLPRPRPRPRVSPRP", "shrunken log2 fold change": -0.102}, {"sequence": "RRIRDRPPRLPRPRPRPVLVPRP", "shrunken log2 fold change": 0.0945}, {"sequence": "RRIRNRPPRLPRPRPRPWWTPRP", "shrunken log2 fold change": -0.129}, {"sequence": "RRIRVRPPRLPRPRPRPHRWPRP", "shrunken log2 fold change": 0.0461}, {"sequence": "RRIRERPPRLPRPRPRPQLLPRP", "shrunken log2 fold change": -0.324}, {"sequence": "RRIRTRPPRLPRPRPRPKLTPRP", "shrunken log2 fold change": 0.0272}, {"sequence": "RRIRLRPPRLPRPRPRPAYTPRP", "shrunken log2 fold change": -0.203}, {"sequence": "RRIRSRPPRLPRPRPRPWIGPRP", "shrunken log2 fold change": -0.0735}, {"sequence": "RRIRLRPPRLPRPRPRPKLHPRP", "shrunken log2 fold change": 0.108}, {"sequence": "RRIRQRPPRLPRPRPRPTWIPRP", "shrunken log2 fold change": -0.057}, {"sequence": "RRIRRRPPRLPRPRPRPKRIPRP", "shrunken log2 fold change": 0.191}, {"sequence": "RRIRSRPPRLPRPRPRPTHRPRP", "shrunken log2 fold change": 0.0995}, {"sequence": "RRIRYRPPRLPRPRPRPTEEPRP", "shrunken log2 fold change": -0.2}, {"sequence": "RRIRPRPPRLPRPRPRPYPHPRP", "shrunken log2 fold change": -0.237}, {"sequence": "RRIRRRPPRLPRPRPRPRSGPRP", "shrunken log2 fold change": 0.751}, {"sequence": "RRIRQRPPRLPRPRPRPDDVPRP", "shrunken log2 fold change": 0.064}, {"sequence": "RRIRDRPPRLPRPRPRPERLPRP", "shrunken log2 fold change": 0.659}, {"sequence": "RRIRSRPPRLPRPRPRPRRFPRP", "shrunken log2 fold change": -0.0186}, {"sequence": "RRIRLRPPRLPRPRPRPAISPRP", "shrunken log2 fold change": 0.118}, {"sequence": "RRIRDRPPRLPRPRPRPALSPRP", "shrunken log2 fold change": 0.0869}, {"sequence": "RRIRMRPPRLPRPRPRPHKHPRP", "shrunken log2 fold change": -0.287}, {"sequence": "RRIRLRPPRLPRPRPRPIFSPRP", "shrunken log2 fold change": -0.182}, {"sequence": "RRIRERPPRLPRPRPRPKWNPRP", "shrunken log2 fold change": -0.447}, {"sequence": "RRIRRRPPRLPRPRPRPCWPPRP", "shrunken log2 fold change": 0.0865}, {"sequence": "RRIRTRPPRLPRPRPRPVQAPRP", "shrunken log2 fold change": 0.0641}, {"sequence": "RRIRGRPPRLPRPRPRPLNSPRP", "shrunken log2 fold change": 0.181}, {"sequence": "RRIRWRPPRLPRPRPRPHCAPRP", "shrunken log2 fold change": -0.0143}, {"sequence": "RRIRYRPPRLPRPRPRPYMQPRP", "shrunken log2 fold change": -0.117}, {"sequence": "RRIRWRPPRLPRPRPRPHFKPRP", "shrunken log2 fold change": -0.179}, {"sequence": "RRIRKRPPRLPRPRPRPCPVPRP", "shrunken log2 fold change": -0.106}, {"sequence": "RRIRPRPPRLPRPRPRPMSMPRP", "shrunken log2 fold change": -0.11}, {"sequence": "RRIRDRPPRLPRPRPRPPSVPRP", "shrunken log2 fold change": 0.258}]}]}
